# Assay results as given in US11407819B2, “Compositions and use of a fibrinogen binding motif present in EFB and COA for therapeutics and vaccines against Staphylococcus aureus” (priority 2013, dated 2022).
# Entries after “also recorded” stand apart in the source; their conditions may differ.
# Biological target: T1, rCoa-C binding to Fg (Homo sapiens, UniProt P02671+P02675+P02679)
# T1 construct: full-length human Fibrinogen (diluted in PBS, Enzyme research); purchased Enzyme research; host or cells: Coa probe made in E. coli BL21
# T1 sequence (P02671 20-629 limits assumed): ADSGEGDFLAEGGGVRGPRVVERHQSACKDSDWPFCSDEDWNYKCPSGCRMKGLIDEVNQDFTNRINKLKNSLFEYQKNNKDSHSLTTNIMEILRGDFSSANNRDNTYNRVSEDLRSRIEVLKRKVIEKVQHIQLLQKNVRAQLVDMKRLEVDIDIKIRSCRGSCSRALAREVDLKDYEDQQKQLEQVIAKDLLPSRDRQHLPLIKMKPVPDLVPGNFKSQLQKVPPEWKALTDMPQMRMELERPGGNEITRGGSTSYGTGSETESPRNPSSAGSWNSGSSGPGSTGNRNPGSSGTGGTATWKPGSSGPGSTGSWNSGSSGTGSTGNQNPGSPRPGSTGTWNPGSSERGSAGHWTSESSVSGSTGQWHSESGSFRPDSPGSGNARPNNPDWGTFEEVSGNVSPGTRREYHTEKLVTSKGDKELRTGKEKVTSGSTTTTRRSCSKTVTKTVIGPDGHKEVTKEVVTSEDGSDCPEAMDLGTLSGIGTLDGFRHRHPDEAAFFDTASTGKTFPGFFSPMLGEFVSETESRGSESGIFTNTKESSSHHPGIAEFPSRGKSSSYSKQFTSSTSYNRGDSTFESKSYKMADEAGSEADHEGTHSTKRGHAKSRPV
# T1 sequence (P02675 31-491): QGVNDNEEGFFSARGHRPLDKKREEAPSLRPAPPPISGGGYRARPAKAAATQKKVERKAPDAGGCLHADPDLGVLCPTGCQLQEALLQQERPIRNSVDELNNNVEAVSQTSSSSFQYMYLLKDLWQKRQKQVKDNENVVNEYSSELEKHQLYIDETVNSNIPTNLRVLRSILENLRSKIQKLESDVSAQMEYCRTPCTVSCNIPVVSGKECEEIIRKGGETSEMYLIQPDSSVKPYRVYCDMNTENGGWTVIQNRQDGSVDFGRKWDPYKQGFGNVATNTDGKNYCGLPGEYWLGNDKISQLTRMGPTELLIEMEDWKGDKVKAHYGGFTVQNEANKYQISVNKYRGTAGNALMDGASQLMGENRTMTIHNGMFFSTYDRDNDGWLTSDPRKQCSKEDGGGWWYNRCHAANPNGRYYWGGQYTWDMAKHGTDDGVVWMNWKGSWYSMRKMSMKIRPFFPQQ
# T1 sequence (P02679 27-453): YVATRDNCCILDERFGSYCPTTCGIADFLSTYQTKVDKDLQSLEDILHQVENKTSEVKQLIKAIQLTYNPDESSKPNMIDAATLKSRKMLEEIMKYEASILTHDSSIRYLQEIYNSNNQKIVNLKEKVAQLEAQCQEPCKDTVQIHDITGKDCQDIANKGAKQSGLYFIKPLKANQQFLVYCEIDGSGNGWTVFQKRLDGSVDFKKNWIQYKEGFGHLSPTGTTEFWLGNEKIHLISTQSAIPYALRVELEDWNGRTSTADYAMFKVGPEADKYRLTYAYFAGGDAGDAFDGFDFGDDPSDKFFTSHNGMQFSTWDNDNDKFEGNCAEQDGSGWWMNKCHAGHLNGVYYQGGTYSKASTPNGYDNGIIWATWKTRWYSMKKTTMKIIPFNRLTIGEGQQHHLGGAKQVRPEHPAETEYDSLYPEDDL
# Assay: Competition ELISA, peptide inhibition of rCoa-C (Coa 311-636) binding to Fg
# Settings: increasing concentrations of peptides; 4 nM GST fusion protein
# Experimental: The residues in Coa-RI important for fibrinogen binding. FIG. 12A is a panel of coa-RI variant peptides were synthesized where each residue in the sequence is individually replaced with Ala (or Ser when the native a.a. is Ala). […] Wells were coated with 0.25 μg/well Fg. Labels -1, -2, -3, -4, -5, -6, -7, -8, -9, -10, -11, -12, -13, -14, -15, -16, -17, -18, -19, -20, -21, -22, -23, -24, -25, -26, -27 refer to Coa-RI-1, Coa-RI-2, Coa-RI-3, Coa-RI-4, Coa-RI-5, Coa-RI-6, Coa-RI-7, Coa-RI-8, Coa-RI-9, Coa-RI-10, Coa-RI-11, Coa-RI-12, Coa-RI-13, Coa-RI-14, Coa-RI-15, Coa-RI-16, Coa-RI-17, Coa-RI-18, Coa-RI-19, Coa-RI-20, Coa-RI-21, Coa-RI-22, Coa-RI-23, Coa-RI-24, Coa-RI-25, Coa-RI-26, Coa-RI-27, respectively. FIG. 12C is a comparison of amino acid sequence of Efb-O with Coa-RI. FIG. 12D is a Fg-binding register of tandem repeats in Coa. Bold letters denote the residues that are important for Fg binding. Binding of a fixed concentration of rCoa-C (2 nM) to immobilized Fg was determined in the presence of a fixed concentration of these peptides (50 uM) (FIG. 12B). […]
# FIG. 13A is a schematic presentation of Coa peptides. […] The Fg binding activities of these peptides were then investigated in a competition ELISA where the binding of rCoa-C to Fg coated microtiter wells were determined in the presence of increasing concentrations of peptide (FIG. 13B). […]
substance,measurement,value
"sCoa-RI: synthetic peptide, first 27 residues of repeat region, Coa 506-532 (ETNAYNVTTHANGQVSYGARPTYKKPS)",inhibition of rCoa-C binding to fibrinogen by overlapping Coa R peptides,some inhibitory activity; also recorded: most potent inhibitor
